The results in this text go back to publication PMC8093829.

Experiment [1] concerns the target T1, recombinant L-asparaginase refolded from E. coli inclusion bodies, P00805.
T1 chain: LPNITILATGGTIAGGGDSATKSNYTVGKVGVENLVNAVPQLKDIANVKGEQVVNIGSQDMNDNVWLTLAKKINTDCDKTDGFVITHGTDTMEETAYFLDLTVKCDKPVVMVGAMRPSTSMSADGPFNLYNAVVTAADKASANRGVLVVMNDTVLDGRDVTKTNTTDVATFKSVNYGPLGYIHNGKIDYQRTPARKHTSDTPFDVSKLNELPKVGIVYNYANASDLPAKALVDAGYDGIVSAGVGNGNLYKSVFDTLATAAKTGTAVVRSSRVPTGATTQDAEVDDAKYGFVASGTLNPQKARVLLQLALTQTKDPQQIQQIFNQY
Kind of experiment: SEC; Superdex 200 PG 16/600, equilibrated with 20 mM Tris-HCl, 10% (v/v) glycerol, pH 8.5, eluted in 50 mM Tris-HCl, 0.5 ml/min; DEAE-purified, concentrated refolded L-asparaginase. The following applies: remark: other sources report otherwise. On the technique in general: SEC sorts molecules by how far they enter the pores of the column.

The target in experiment [2] is T2, commercial L-asparaginase 5,000 IU/ml, Bionase 5K, P00805.
T2 chain: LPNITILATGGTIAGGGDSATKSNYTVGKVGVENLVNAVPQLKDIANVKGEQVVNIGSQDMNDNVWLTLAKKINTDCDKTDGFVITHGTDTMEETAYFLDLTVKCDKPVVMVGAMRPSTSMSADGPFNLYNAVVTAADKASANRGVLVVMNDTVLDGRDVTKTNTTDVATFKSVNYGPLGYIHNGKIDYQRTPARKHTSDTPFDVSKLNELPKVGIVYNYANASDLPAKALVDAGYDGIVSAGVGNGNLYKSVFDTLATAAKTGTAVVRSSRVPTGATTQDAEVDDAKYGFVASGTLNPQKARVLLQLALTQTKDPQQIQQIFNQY
The experiment is described as follows: SEC; HPLC, TSK gel G3000SWxl, 20 mM Tris-HCl and 100 mM NaCl; commercial L-asparaginase concentrated to 2 mg/ml. The note with it: remark: other sources report otherwise.

B1: recombinant L-asparaginase refolded from E. coli inclusion bodies, P00805 23-348 (enzyme)
chain: LPNITILATGGTIAGGGDSATKSNYTVGKVGVENLVNAVPQLKDIANVKGEQVVNIGSQDMNDNVWLTLAKKINTDCDKTDGFVITHGTDTMEETAYFLDLTVKCDKPVVMVGAMRPSTSMSADGPFNLYNAVVTAADKASANRGVLVVMNDTVLDGRDVTKTNTTDVATFKSVNYGPLGYIHNGKIDYQRTPARKHTSDTPFDVSKLNELPKVGIVYNYANASDLPAKALVDAGYDGIVSAGVGNGNLYKSVFDTLATAAKTGTAVVRSSRVPTGATTQDAEVDDAKYGFVASGTLNPQKARVLLQLALTQTKDPQQIQQIFNQY
Usually stoichiometry N stands for a count of units in the complex or per binding partner. Turning to B1, the stoichiometry N in experiment [1] came to 4.

B2: commercial L-asparaginase 5,000 IU/ml, Bionase 5K, P00805 23-348 (enzyme)
chain: LPNITILATGGTIAGGGDSATKSNYTVGKVGVENLVNAVPQLKDIANVKGEQVVNIGSQDMNDNVWLTLAKKINTDCDKTDGFVITHGTDTMEETAYFLDLTVKCDKPVVMVGAMRPSTSMSADGPFNLYNAVVTAADKASANRGVLVVMNDTVLDGRDVTKTNTTDVATFKSVNYGPLGYIHNGKIDYQRTPARKHTSDTPFDVSKLNELPKVGIVYNYANASDLPAKALVDAGYDGIVSAGVGNGNLYKSVFDTLATAAKTGTAVVRSSRVPTGATTQDAEVDDAKYGFVASGTLNPQKARVLLQLALTQTKDPQQIQQIFNQY
As to B2, in experiment [2], the stoichiometry N came out at 4 and the tetrameric population (%) is 81.4%.
